Results: PMC7296103, “Live Cell Imaging Demonstrates Multiple Routes Toward a STAT1 Gain-of-Function Phenotype” (Frontiers in Immunology, 2020)

Experiments:
[1] = target: T1, STAT1-GFP wild type, P42224; test: raster image correlation spectroscopy (RICS), molecular brightness; living U3A cells, unstimulated, 37°C; cytoplasm and nucleus; brightness of STAT1-GFP compared with monomeric GFP; settings: remark: other sources report otherwise
T1 chain: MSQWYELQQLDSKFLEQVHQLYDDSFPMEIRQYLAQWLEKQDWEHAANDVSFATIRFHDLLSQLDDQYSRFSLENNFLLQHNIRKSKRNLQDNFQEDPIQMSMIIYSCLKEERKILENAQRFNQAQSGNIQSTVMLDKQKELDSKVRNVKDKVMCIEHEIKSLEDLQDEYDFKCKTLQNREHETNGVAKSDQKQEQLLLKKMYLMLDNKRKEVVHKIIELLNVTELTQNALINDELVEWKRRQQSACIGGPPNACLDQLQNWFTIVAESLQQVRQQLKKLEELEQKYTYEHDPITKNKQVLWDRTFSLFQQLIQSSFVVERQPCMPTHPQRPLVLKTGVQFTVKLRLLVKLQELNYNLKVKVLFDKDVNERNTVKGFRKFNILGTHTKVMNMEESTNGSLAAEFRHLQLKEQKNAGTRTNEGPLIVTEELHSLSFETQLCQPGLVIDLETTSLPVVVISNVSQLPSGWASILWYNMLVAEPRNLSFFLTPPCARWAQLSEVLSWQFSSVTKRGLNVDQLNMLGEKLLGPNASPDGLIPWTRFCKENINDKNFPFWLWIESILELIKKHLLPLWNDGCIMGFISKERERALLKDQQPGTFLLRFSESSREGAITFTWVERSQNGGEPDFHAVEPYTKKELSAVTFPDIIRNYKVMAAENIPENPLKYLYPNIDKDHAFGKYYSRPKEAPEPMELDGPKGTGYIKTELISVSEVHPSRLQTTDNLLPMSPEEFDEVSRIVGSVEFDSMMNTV

[2] = target: T1, STAT1-GFP wild type, P42224; test: raster image correlation spectroscopy (RICS), molecular brightness; living U3A cells after IFNγ (1 U/μl, 1 h), 37°C; cytoplasm; brightness as fold of cytoplasmic STAT1 WT; settings: remark: other sources report otherwise
[3] = target: T1, STAT1-GFP wild type, P42224; test: raster image correlation spectroscopy (RICS), molecular brightness; living U3A cells after IFNγ (1 U/μl, 1 h), 37°C; nucleus; brightness as fold of cytoplasmic STAT1 WT; dimers to tetramers; settings: remark: other sources report otherwise
[4] = target: the molecule itself; test: as above
[5] = target: the molecule itself; test: raster image correlation spectroscopy (RICS), molecular brightness; living U3A cells after IFNγ (1 U/μl, 1 h), 37°C; cytoplasm; brightness as fold of cytoplasmic STAT1 WT

B1: STAT1-GFP wild type, P42224 1-750 (natural protein)
chain: MSQWYELQQLDSKFLEQVHQLYDDSFPMEIRQYLAQWLEKQDWEHAANDVSFATIRFHDLLSQLDDQYSRFSLENNFLLQHNIRKSKRNLQDNFQEDPIQMSMIIYSCLKEERKILENAQRFNQAQSGNIQSTVMLDKQKELDSKVRNVKDKVMCIEHEIKSLEDLQDEYDFKCKTLQNREHETNGVAKSDQKQEQLLLKKMYLMLDNKRKEVVHKIIELLNVTELTQNALINDELVEWKRRQQSACIGGPPNACLDQLQNWFTIVAESLQQVRQQLKKLEELEQKYTYEHDPITKNKQVLWDRTFSLFQQLIQSSFVVERQPCMPTHPQRPLVLKTGVQFTVKLRLLVKLQELNYNLKVKVLFDKDVNERNTVKGFRKFNILGTHTKVMNMEESTNGSLAAEFRHLQLKEQKNAGTRTNEGPLIVTEELHSLSFETQLCQPGLVIDLETTSLPVVVISNVSQLPSGWASILWYNMLVAEPRNLSFFLTPPCARWAQLSEVLSWQFSSVTKRGLNVDQLNMLGEKLLGPNASPDGLIPWTRFCKENINDKNFPFWLWIESILELIKKHLLPLWNDGCIMGFISKERERALLKDQQPGTFLLRFSESSREGAITFTWVERSQNGGEPDFHAVEPYTKKELSAVTFPDIIRNYKVMAAENIPENPLKYLYPNIDKDHAFGKYYSRPKEAPEPMELDGPKGTGYIKTELISVSEVHPSRLQTTDNLLPMSPEEFDEVSRIVGSVEFDSMMNTV
[1]
  stoichiometry N: 2
[2]
  relative brightness (fold of cytoplasmic STAT1 WT): 1 A.U.
[3]
  relative brightness (fold of cytoplasmic STAT1 WT): 1.32 A.U.
  stoichiometry N: 4

B2: STAT1-GFP Y701A (natural protein, UniProt P42224 1-750, looked up)
chain: MSQWYELQQLDSKFLEQVHQLYDDSFPMEIRQYLAQWLEKQDWEHAANDVSFATIRFHDLLSQLDDQYSRFSLENNFLLQHNIRKSKRNLQDNFQEDPIQMSMIIYSCLKEERKILENAQRFNQAQSGNIQSTVMLDKQKELDSKVRNVKDKVMCIEHEIKSLEDLQDEYDFKCKTLQNREHETNGVAKSDQKQEQLLLKKMYLMLDNKRKEVVHKIIELLNVTELTQNALINDELVEWKRRQQSACIGGPPNACLDQLQNWFTIVAESLQQVRQQLKKLEELEQKYTYEHDPITKNKQVLWDRTFSLFQQLIQSSFVVERQPCMPTHPQRPLVLKTGVQFTVKLRLLVKLQELNYNLKVKVLFDKDVNERNTVKGFRKFNILGTHTKVMNMEESTNGSLAAEFRHLQLKEQKNAGTRTNEGPLIVTEELHSLSFETQLCQPGLVIDLETTSLPVVVISNVSQLPSGWASILWYNMLVAEPRNLSFFLTPPCARWAQLSEVLSWQFSSVTKRGLNVDQLNMLGEKLLGPNASPDGLIPWTRFCKENINDKNFPFWLWIESILELIKKHLLPLWNDGCIMGFISKERERALLKDQQPGTFLLRFSESSREGAITFTWVERSQNGGEPDFHAVEPYTKKELSAVTFPDIIRNYKVMAAENIPENPLKYLYPNIDKDHAFGKYYSRPKEAPEPMELDGPKGTGAIKTELISVSEVHPSRLQTTDNLLPMSPEEFDEVSRIVGSVEFDSMMNTV
notes: Non-clinical control; also called STAT1Y701A-eGFP; source: measured in living cells; not shown: eGFP, C-terminal, kept
[4]
  stoichiometry N: 2

B3: STAT1-GFP R274W (natural protein, UniProt P42224 1-750, looked up)
chain: MSQWYELQQLDSKFLEQVHQLYDDSFPMEIRQYLAQWLEKQDWEHAANDVSFATIRFHDLLSQLDDQYSRFSLENNFLLQHNIRKSKRNLQDNFQEDPIQMSMIIYSCLKEERKILENAQRFNQAQSGNIQSTVMLDKQKELDSKVRNVKDKVMCIEHEIKSLEDLQDEYDFKCKTLQNREHETNGVAKSDQKQEQLLLKKMYLMLDNKRKEVVHKIIELLNVTELTQNALINDELVEWKRRQQSACIGGPPNACLDQLQNWFTIVAESLQQVWQQLKKLEELEQKYTYEHDPITKNKQVLWDRTFSLFQQLIQSSFVVERQPCMPTHPQRPLVLKTGVQFTVKLRLLVKLQELNYNLKVKVLFDKDVNERNTVKGFRKFNILGTHTKVMNMEESTNGSLAAEFRHLQLKEQKNAGTRTNEGPLIVTEELHSLSFETQLCQPGLVIDLETTSLPVVVISNVSQLPSGWASILWYNMLVAEPRNLSFFLTPPCARWAQLSEVLSWQFSSVTKRGLNVDQLNMLGEKLLGPNASPDGLIPWTRFCKENINDKNFPFWLWIESILELIKKHLLPLWNDGCIMGFISKERERALLKDQQPGTFLLRFSESSREGAITFTWVERSQNGGEPDFHAVEPYTKKELSAVTFPDIIRNYKVMAAENIPENPLKYLYPNIDKDHAFGKYYSRPKEAPEPMELDGPKGTGYIKTELISVSEVHPSRLQTTDNLLPMSPEEFDEVSRIVGSVEFDSMMNTV
notes: STAT1 with the patient gain-of-function mutation R274W (coiled-coil domain); Mutation reported in patients; also called STAT1R274W-eGFP; source: measured in living cells; not shown: eGFP, C-terminal, kept
[4]
  increase of nuclear brightness compared to cytoplasmic STAT1 WT: 17%
  stoichiometry N: 4

B4: STAT1-GFP E411A (natural protein, UniProt P42224 1-750, looked up)
chain: MSQWYELQQLDSKFLEQVHQLYDDSFPMEIRQYLAQWLEKQDWEHAANDVSFATIRFHDLLSQLDDQYSRFSLENNFLLQHNIRKSKRNLQDNFQEDPIQMSMIIYSCLKEERKILENAQRFNQAQSGNIQSTVMLDKQKELDSKVRNVKDKVMCIEHEIKSLEDLQDEYDFKCKTLQNREHETNGVAKSDQKQEQLLLKKMYLMLDNKRKEVVHKIIELLNVTELTQNALINDELVEWKRRQQSACIGGPPNACLDQLQNWFTIVAESLQQVRQQLKKLEELEQKYTYEHDPITKNKQVLWDRTFSLFQQLIQSSFVVERQPCMPTHPQRPLVLKTGVQFTVKLRLLVKLQELNYNLKVKVLFDKDVNERNTVKGFRKFNILGTHTKVMNMEESTNGSLAAEFRHLQLKAQKNAGTRTNEGPLIVTEELHSLSFETQLCQPGLVIDLETTSLPVVVISNVSQLPSGWASILWYNMLVAEPRNLSFFLTPPCARWAQLSEVLSWQFSSVTKRGLNVDQLNMLGEKLLGPNASPDGLIPWTRFCKENINDKNFPFWLWIESILELIKKHLLPLWNDGCIMGFISKERERALLKDQQPGTFLLRFSESSREGAITFTWVERSQNGGEPDFHAVEPYTKKELSAVTFPDIIRNYKVMAAENIPENPLKYLYPNIDKDHAFGKYYSRPKEAPEPMELDGPKGTGYIKTELISVSEVHPSRLQTTDNLLPMSPEEFDEVSRIVGSVEFDSMMNTV
notes: Artificial mutation, not reported in patients; also called STAT1E411A-eGFP; source: measured in living cells; not shown: eGFP, C-terminal, kept
[4]
  stoichiometry N: 2

B5: STAT1-GFP R321S (natural protein, UniProt P42224 1-750, looked up)
chain: MSQWYELQQLDSKFLEQVHQLYDDSFPMEIRQYLAQWLEKQDWEHAANDVSFATIRFHDLLSQLDDQYSRFSLENNFLLQHNIRKSKRNLQDNFQEDPIQMSMIIYSCLKEERKILENAQRFNQAQSGNIQSTVMLDKQKELDSKVRNVKDKVMCIEHEIKSLEDLQDEYDFKCKTLQNREHETNGVAKSDQKQEQLLLKKMYLMLDNKRKEVVHKIIELLNVTELTQNALINDELVEWKRRQQSACIGGPPNACLDQLQNWFTIVAESLQQVRQQLKKLEELEQKYTYEHDPITKNKQVLWDRTFSLFQQLIQSSFVVESQPCMPTHPQRPLVLKTGVQFTVKLRLLVKLQELNYNLKVKVLFDKDVNERNTVKGFRKFNILGTHTKVMNMEESTNGSLAAEFRHLQLKEQKNAGTRTNEGPLIVTEELHSLSFETQLCQPGLVIDLETTSLPVVVISNVSQLPSGWASILWYNMLVAEPRNLSFFLTPPCARWAQLSEVLSWQFSSVTKRGLNVDQLNMLGEKLLGPNASPDGLIPWTRFCKENINDKNFPFWLWIESILELIKKHLLPLWNDGCIMGFISKERERALLKDQQPGTFLLRFSESSREGAITFTWVERSQNGGEPDFHAVEPYTKKELSAVTFPDIIRNYKVMAAENIPENPLKYLYPNIDKDHAFGKYYSRPKEAPEPMELDGPKGTGYIKTELISVSEVHPSRLQTTDNLLPMSPEEFDEVSRIVGSVEFDSMMNTV
notes: Mutation reported in patients; also called STAT1R321S-eGFP; source: measured in living cells; not shown: eGFP, C-terminal, kept
[4]
  increase of nuclear brightness compared to cytoplasmic STAT1 WT: 11%
  stoichiometry N: 4
[5]
  relative brightness (fold of cytoplasmic STAT1 WT): 0.69 A.U.

B6: STAT1-GFP N574I (natural protein, UniProt P42224 1-750, looked up)
chain: MSQWYELQQLDSKFLEQVHQLYDDSFPMEIRQYLAQWLEKQDWEHAANDVSFATIRFHDLLSQLDDQYSRFSLENNFLLQHNIRKSKRNLQDNFQEDPIQMSMIIYSCLKEERKILENAQRFNQAQSGNIQSTVMLDKQKELDSKVRNVKDKVMCIEHEIKSLEDLQDEYDFKCKTLQNREHETNGVAKSDQKQEQLLLKKMYLMLDNKRKEVVHKIIELLNVTELTQNALINDELVEWKRRQQSACIGGPPNACLDQLQNWFTIVAESLQQVRQQLKKLEELEQKYTYEHDPITKNKQVLWDRTFSLFQQLIQSSFVVERQPCMPTHPQRPLVLKTGVQFTVKLRLLVKLQELNYNLKVKVLFDKDVNERNTVKGFRKFNILGTHTKVMNMEESTNGSLAAEFRHLQLKEQKNAGTRTNEGPLIVTEELHSLSFETQLCQPGLVIDLETTSLPVVVISNVSQLPSGWASILWYNMLVAEPRNLSFFLTPPCARWAQLSEVLSWQFSSVTKRGLNVDQLNMLGEKLLGPNASPDGLIPWTRFCKENINDKNFPFWLWIESILELIKKHLLPLWIDGCIMGFISKERERALLKDQQPGTFLLRFSESSREGAITFTWVERSQNGGEPDFHAVEPYTKKELSAVTFPDIIRNYKVMAAENIPENPLKYLYPNIDKDHAFGKYYSRPKEAPEPMELDGPKGTGYIKTELISVSEVHPSRLQTTDNLLPMSPEEFDEVSRIVGSVEFDSMMNTV
notes: STAT1 with the patient gain-of-function mutation N574I (linker domain); Mutation reported in patients; also called STAT1N574I-eGFP; N571I (as printed in some places); source: measured in living cells; not shown: eGFP, C-terminal, kept
[4]
  increase of nuclear brightness compared to cytoplasmic STAT1 WT: 7%
  stoichiometry N: 4
[5]
  relative brightness (fold of cytoplasmic STAT1 WT): 0.74 A.U.
